Experimental data reported in US20230303711A1 (BIO THERA SOLUTIONS, published 2023).
Positions count from the first letter of the chain named. Names may count otherwise. Each block holds one binder with its values, some of them ahead of it.

Columns and labels:
[1] = biological target: T1, CD47 on the cell surface (CHO-CD47 cells, Jurkat cells, Raji cells) (human, UniProt Q08722 19-323); experiment: flow cytometry on Jurkat cells, goat anti-human IgG Fc-PE, PE-A mean fluorescence
T1 construct: whole, on cells; One molecule is used for CD47 on CHO-CD47, Jurkat and Raji cells; also called CHO surface CD47; Jurkat cell surface CD47

[2] = biological target: T1, CD47 on the cell surface (CHO-CD47 …); experiment: flow cytometry on CHO-CD47 cells, goat anti-human IgG Fc-PE, PE-A mean fluorescence
[3] = biological target: T1, CD47 on the cell surface (CHO-CD47 …); experiment: flow cytometry competition on CHO-CD47 cells; blocked ligand SIRPα-Fc-Bio (6.5 µg/mL), streptavidin-PE; value is parameter C of the printed 4-parameter fit
[4] = biological target: T2, His-tagged human CD47-ECD protein (CD47-His) (human, UniProt Q08722 19-139); experiment: competitive ELISA on coated CD47-His (2 µg/mL); blocked ligand SIRPα-Fc-Bio (0.1 µg/mL), HRP-streptavidin, OD450; value is parameter C of the printed 4-parameter fit; inhibition is partial (A 1.373, D 0.661)
T2 construct: Expressed in HEK293F cells; also called CD47-His antigen

macaque CD47-Fc = biological target: T3, macaque CD47-Fc (macaque, UniProt A0A2K5X523 19-141); experiment: ELISA on coated macaque CD47-Fc; row printed as Affinity (µg/mL)
T3 construct: Bought reagent; not shown: Fc part of the bought fusion and any linker to it

[5] = biological target: T2, His-tagged human CD47-ECD protein …; experiment: competitive ELISA on coated CD47-His (2 µg/mL); blocked ligand SIRPα-Fc-Bio (0.1 µg/mL), HRP-streptavidin, OD450; value is parameter C of the printed 4-parameter fit
[6] = biological target: T2, His-tagged human CD47-ECD protein …; experiment: as above; remark: listed apart in the source
[7] = biological target: T2, His-tagged human CD47-ECD protein …; experiment: as above; remark: listed apart in the source
[8] = biological target: T2, His-tagged human CD47-ECD protein …; experiment: BLI (Fortebio), antibody on protein A sensor, CD47-His in solution
[9] = biological target: T2, His-tagged human CD47-ECD protein …; experiment: competitive ELISA on coated CD47-His (2 µg/mL); blocked ligand SIRPα-Fc-Bio (0.1 µg/mL), HRP-streptavidin, OD450; value is parameter C of the printed 4-parameter fit; remark: listed apart in the source

T3 sequence (A0A2K5X523 entry or part of it limits assumed): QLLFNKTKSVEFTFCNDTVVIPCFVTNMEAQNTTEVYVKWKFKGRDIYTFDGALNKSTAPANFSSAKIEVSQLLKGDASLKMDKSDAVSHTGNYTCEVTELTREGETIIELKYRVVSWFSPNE

B1: Antibody 17-ScFv (scFv)
scFv: QVQLQESGPGLVKPSETLSLTCTVSGGSLDNYYWSWIRQPPGKGLEWIGYIYYSGNTNYNPSLKSRVTISVDTSKNQFSLRLRSVTAADTAVYYCARGGRFLERYWGQGTLVTVSSGGGGSGGGGSGGGGSDIQMTQSPSSVSASVGDRVTISCRANQAIGTWLAWYQQKPGKAPKLLIYAASTLQSGVPSRFSGSGSGTEFTLTISSLQAEDVAVYYCQQYYTTPLTFGGGTKLEIK
notes: VH C-terminus linked to VL N-terminus; Purified on a protein A column and detected with anti-human IgG Fc-PE, but no Fc or tag is described for it
EC50 (read off the curve) [1]: ~1 µg/mL | EC50 (read off the curve) [2]: ~1 µg/mL | IC50 [3]: 15.1 µg/mL | IC50 [4]: 0.936 µg/mL

B2: Antibody 17 (antibody, human IgG1, kappa, V domains shown)
VH: QVQLQESGPGLVKPSETLSLTCTVSGGSLDNYYWSWIRQPPGKGLEWIGYIYYSGNTNYNPSLKSRVTISVDTSKNQFSLRLRSVTAADTAVYYCARGGRFLERYWGQGTLVTVSS
VL: DIQMTQSPSSVSASVGDRVTISCRANQAIGTWLAWYQQKPGKAPKLLIYAASTLQSGVPSRFSGSGSGTEFTLTISSLQAEDVAVYYCQQYYTTPLTFGGGTKLEIKR
notes: Full-length IgG1
EC50 (macaque CD47-Fc): 0.064 µg/mL | IC50 [5]: 0.795 µg/mL

B3: Antibody 18 (antibody, human IgG1, kappa, V domains shown)
VH: QVQLQESGPGLVKPSETLSLTCTVSGGSLDNYYWSWIRQPPGKGLEWIGYIYYSGNTNYNPSLKSRVTISVDTSKNQFSLRLRSVTAADTAVYYCARGRGIFGYWGQGTLVTVSS
VL: B2 VL
notes: Full-length IgG1
IC50 [6]: 1.23 µg/mL

B4: Antibody 3 (antibody, human IgG1, kappa, V domains shown)
VH: B2 VH with N31G, Y50R, Y53G, S54N, G55S, N56T, F101I, L102F, E103A, R104G
VL: B2 VL
notes: Full-length IgG1
IC50 [7]: 0.844 µg/mL

B5: Antibody 3-3 (antibody, human IgG1, kappa, V domains shown)
VH: B2 VH with F101I, L102F, E103G, R104G
VL: B2 VL
notes: Full-length IgG1
IC50 [7]: 0.939 µg/mL

B6: Antibody 25 (antibody, human IgG1, kappa, V domains shown)
VH: B3 VH with R99G, G100R, Y104H
VL: B2 VL
notes: Full-length IgG1
IC50 [6]: 1.31 µg/mL

B7: Antibody 10 (antibody, human IgG1, kappa, V domains shown)
VH: B2 VH with Y50R, S54N, F101I, E103A, R104G
VL: B2 VL
notes: Full-length IgG1
IC50 [7]: 1.06 µg/mL

B8: Antibody 11 (antibody, human IgG1, kappa, V domains shown)
VH: B2 VH with N31G, Y50R, Y53D, S54G, G55S, N56G, F101I, L102F, E103G, R104G
VL: B2 VL
notes: Full-length IgG1
IC50 [7]: 0.921 µg/mL

B9: Antibody 16 (antibody, human IgG1, kappa, V domains shown)
VH: B2 VH with F101I, L102F, E103S, R104G
VL: B2 VL
notes: Full-length IgG1
IC50 [6]: 0.975 µg/mL

B10: Antibody 3-6 (antibody, human IgG1, kappa, V domains shown)
VH: B2 VH with F101I, L102F, E103A, R104G
VL: B2 VL
notes: Full-length IgG1
IC50 [7]: 1.12 µg/mL

B11: Antibody 24 (antibody, human IgG1, kappa, V domains shown)
VH: B2 VH with Y50R, Y53G, S54D, G55S, N56A, F101I, L102F, E103S, R104G
VL: B2 VL
notes: Full-length IgG1
IC50 [6]: 1.41 µg/mL

B12: Antibody 6 (antibody, human IgG1, kappa, V domains shown)
VH: B2 VH with D30N, N31D, Y50R, Y53G, S54N, N56D, F101I, E103A, R104G
VL: B2 VL
notes: Full-length IgG1
IC50 [7]: 1.1 µg/mL

B13: Antibody L12-10 (antibody, human IgG1, kappa)
heavy: not shown
light: EIVLTQSPSSLSASVGDRVTIPCRASLSIGSFLNWYQQRPGEAPKLLIFAASSLRSGVPSRFSGSGSGTDFTLTISSLQPEDFATYYCQQTYTTPYTFGQGTKVEIKRTVAAPSVFIFPPSDEQLKSGTASVVCLLNNFYPREAKVQWKVDNALQSGNSQESVTEQDSKDSTYSLSSTLTLSKADYEKHKVYACEVTHQGLSSPVTKSFNRGEC
notes: Full-length IgG1
Kd [8]: 0.195 nM

B14: Antibody 6Y-G4 (antibody, human IgG4 S228P, kappa)
heavy: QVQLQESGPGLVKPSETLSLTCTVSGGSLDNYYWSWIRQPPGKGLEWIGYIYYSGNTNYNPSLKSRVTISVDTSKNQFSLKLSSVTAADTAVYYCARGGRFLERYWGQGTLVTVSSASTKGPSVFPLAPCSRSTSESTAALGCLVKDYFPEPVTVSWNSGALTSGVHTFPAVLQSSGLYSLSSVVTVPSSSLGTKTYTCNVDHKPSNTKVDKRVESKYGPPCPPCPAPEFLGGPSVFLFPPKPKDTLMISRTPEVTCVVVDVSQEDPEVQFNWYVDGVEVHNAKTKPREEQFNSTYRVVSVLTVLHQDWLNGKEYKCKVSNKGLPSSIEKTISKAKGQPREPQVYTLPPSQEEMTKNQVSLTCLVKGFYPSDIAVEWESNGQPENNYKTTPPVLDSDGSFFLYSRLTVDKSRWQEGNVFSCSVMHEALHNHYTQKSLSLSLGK
light: B13 light with S77G, E105D
notes: IgG4P (S228P) form of 6Y-G1
EC50 (macaque CD47-Fc): 0.11 µg/mL | IC50 [9]: 0.763 µg/mL

B15: Antibody L1 (antibody, human IgG1, kappa)
heavy: not shown
light: B13 light with S10T, S77G
notes: Full-length IgG1
IC50 [5]: 0.967 µg/mL

B16: Antibody L5 (antibody, human IgG1, kappa)
heavy: not shown
light: B13 light with S77G, Q100P, K103R, V104L
notes: Full-length IgG1
IC50 [5]: 1.02 µg/mL

B18: Antibody 6Y-G1 (antibody, human IgG1, kappa)
heavy: not shown
light: B13 light with S77G, E105D
notes: also called Antibody L12-6; L12-6
EC50 (macaque CD47-Fc): 0.083 µg/mL | Kd [8]: 0.142 nM | IC50 [9]: 0.913 µg/mL

B23: Antibody L12 (antibody, human IgG1, kappa)
heavy: not shown
light: B13 light with S77G, E105D
notes: Full-length IgG1
EC50 (macaque CD47-Fc): 0.066 µg/mL | Kd [8]: 0.112 nM | IC50 [6]: 1.18 µg/mL

Results, then the binder that gave them:

Kd [8]: 0.122 nM
B17: Antibody L12-2 (antibody, human IgG1, kappa, V domains shown)
VH: B2 VH with R81K, R83S
VL: EIVLTQSPSSLSASVGDRVTIPCRASLSIGSFLNWYQQRPGEAPKLLIFAASSLRSGVPSRFSGSGSGTDFTLTISSLQPEDFATYYCQQTYTTPYTFGQGTKVEIKR
notes: Full-length IgG1

Kd [8]: 0.107 nM
B19: Antibody L12-4 (antibody, human IgG1, kappa)
heavy: not shown
light: B13 light with R39K, E42K
notes: Full-length IgG1

Kd [8]: 0.138 nM
B20: Antibody L12-5 (antibody, human IgG1, kappa)
heavy: not shown
light: B13 light with P22T, R39K, E42K, F49Y
notes: Full-length IgG1

Kd [8]: 0.124 nM
B21: Antibody L12-9 (antibody, human IgG1, kappa)
heavy: not shown
light: B13 light with E1D, V3Q, L4M, P22T, R39K, E42K, F49Y
notes: Full-length IgG1

Kd [8]: 0.144 nM
B22: Antibody L12-3 (antibody, human IgG1, kappa, V domains shown)
VH: B2 VH with R81K, R83S
VL: B17 VL with P22T, R39K, E42K
notes: Full-length IgG1

Kd [8]: 0.152 nM
B24: Antibody L12-1 (antibody, human IgG1, kappa)
heavy: not shown
light: B13 light with P22T, R39K, E42K, F49Y
notes: Full-length IgG1

Kd [8]: 0.149 nM
B25: Antibody L12-7 (antibody, human IgG1, kappa)
heavy: not shown
light: B13 light with P22T, R39K, E42K
notes: Full-length IgG1

Kd [8]: 0.175 nM
B26: Antibody L12-11 (antibody, human IgG1, kappa)
heavy: not shown
light: B13 light with E1D, V3Q, L4M, P22T, R39K, E42K, F49Y
notes: Full-length IgG1

IC50 [5]: 1.02 µg/mL
B27: Antibody L26 (antibody, human IgG1, kappa)
heavy: not shown
light: B13 light with V104L
notes: Full-length IgG1

IC50 [5]: 1.09 µg/mL
B28: Antibody L24 (antibody, human IgG1, kappa)
heavy: not shown
light: B13 light with E1D, V3Q, L4M
notes: Full-length IgG1
